{"source": "paper PMC7413259", "about": "“Identification of the viral RNA promoter stem loop A (SLA)-binding site on Zika virus polymerase NS5”", "key": {"ZIKV NS5 WT": {"molecular_target": "ZIKV NS5 WT (Zika virus, UniProt A0A024B7W1 2521-3423)", "assay": "fluorescence titration; buffer B1; B1: 50 mM Tris-HCl pH 8.0, 150 mM NaCl, 1 mM MgCl2, 2 mM beta-mercaptoethanol, 10% glycerol, 20 C; B2: same with 100 mM NaCl, 20 C", "settings": "protein: recombinant; tags: N-terminal His6-SUMO, cleaved; label: etheno-A fluorescence; single strand"}, "ZIKV NS5 MTase domain WT": {"molecular_target": "ZIKV NS5 MTase domain WT (Zika virus, UniProt A0A142I5B9 2521-2785)", "assay": "fluorescence anisotropy; buffer B2; B1: 50 mM Tris-HCl pH 8.0, 150 mM NaCl, 1 mM MgCl2, 2 mM beta-mercaptoethanol, 10% glycerol, 20 C; B2: same with 100 mM NaCl, 20 C", "settings": "protein: recombinant; tags: N-terminal His6; label: etheno-A fluorescence; single strand"}}}
{"binder": "AAAAAAAAAAAAAAAAAAAA (ssRNA, all A etheno-modified (1,N6-ethenoadenosine))", "note": "[epsilonA(p-epsilonA)19 20-mer ssRNA]", "values": [{"measurement": "Kd", "setting": "ZIKV NS5 WT", "result": 500, "unit": "nM"}, {"measurement": "Kd", "setting": "ZIKV NS5 MTase domain WT", "result": 910, "unit": "nM"}]}
